We go through 3 proteins from publication PMC3162248.

Substrate in data set [1]: NC(=O)c1ccc[n+]([C@@H]2O[C@H](COP(=O)(O)O)[C@@H](O)[C@H]2O)c1
In words: purified protein. The format is biochemical, Mus musculus. Particulars: 1 mM ATP, 20 mM MgCl2, 20 mM HEPES-KOH pH 7.4, 37°C.

Substrate in data set [2]: Nc1ncnc2c1ncn2[C@@H]1O[C@H](COP(=O)(O)OP(=O)(O)OP(=O)(O)O)[C@@H](O)[C@H]1O
Nature of the data set: purified protein. The format is biochemical, Mus musculus. The following applies: 1 mM NMN, 20 mM MgCl2, 20 mM HEPES-KOH pH 7.4, 37°C.

Positions count from the first letter of the chain named. Names and notes keep the numbering of the source.

B1: Nmnat1 (mouse Nmnat1) (Mus musculus) (protein)
chain: MDSSKKTEVVLLACGSFNPITNMHLRLFELAKDYMHATGKYSVIKGIISPVGDAYKKKGLIPAHHRIIMAELATKNSHWVEVDTWESLQKEWVETVKVLRYHQEKLATGSCSYPQSSPALEKPGRKRKWADQKQDSSPQKPQEPKPTGVPKVKLLCGADLLESFSVPNLWKMEDITQIVANFGLICITRAGSDAQKFIYESDVLWRHQSNIHLVNEWITNDISSTKIRRALRRGQSIRYLVPDLVQEYIEKHELYNTESEGRNAGVTLAPLQRNAAEAKHNHSTL
By Km is commonly meant the concentration of substrate that gives half-maximal velocity. Consider B1, for which the Km in “purified protein [1]” worked out at 27.6 µM; in “purified protein [2]” it was 50.4 µM.

B2: Nmnat1 (mouse Nmnat1) (Mus musculus; W170A) (protein)
chain: B1 chain with W170A
Regarding B2, the Km in the data set “purified protein [1]” amounted to 1400 µM.

B3: Nmnat1 (mouse Nmnat1) (Mus musculus; H24A) (protein)
chain: B1 chain with H24A
For B3, the Km in “purified protein [2]” amounted to 47.3 µM.
